Data reported in patent US20260167721A1 (ABLEXIS, published 2026).
Blank lines part the entries; values can stand above or below the binder they belong to.

Columns and labels:
recombinant CD3 proteins [1] = target: T1, recombinant CD3 proteins (UniProt P07766 23-126); assay: Octet BLI, recombinant CD3; Full R^2 0.998
T1 construct: elsewhere it uses human CD3 E/D and E/G heterodimers

recombinant CD3 proteins [2] = target: T1, recombinant CD3 proteins; assay: Octet BLI, recombinant CD3; Full R^2 0.9991
recombinant CD3 proteins [3] = target: T1, recombinant CD3 proteins; assay: Octet BLI, recombinant CD3; Full R^2 0.9966
recombinant CD3 proteins [4] = target: T1, recombinant CD3 proteins; assay: Octet BLI, recombinant CD3; Full R^2 0.9823
recombinant CD3 proteins [5] = target: T1, recombinant CD3 proteins; assay: Octet BLI, recombinant CD3; Full R^2 0.9986
recombinant CD3 proteins [6] = target: T1, recombinant CD3 proteins; assay: Octet BLI, recombinant CD3; Full R^2 0.966
recombinant CD3 proteins [7] = target: T1, recombinant CD3 proteins; assay: Octet BLI, recombinant CD3; Full R^2 0.9872

T1 sequence (P07766 23-126): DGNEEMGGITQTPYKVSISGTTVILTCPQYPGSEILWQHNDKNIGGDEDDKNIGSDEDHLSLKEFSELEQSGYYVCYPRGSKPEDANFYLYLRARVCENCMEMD

- Kd (recombinant CD3 proteins [1]): 63.8 nM
- koff (recombinant CD3 proteins [1]): 0.00203 s⁻¹
- kon (recombinant CD3 proteins [1]): 31900 M⁻¹ s⁻¹
B1: CD3 × CD33-BspAb91 (bispecific antibody)
chain 1: DIQMTQSPSTLSASVGDRVTITCRASQSISSWLAWFQQKTGKAPKLLIYKASSLESGVPSRFSGSGSGTEFTLTISSLQPDDFATYYCQQYISYSWTFGCGTKVEIKGGGGSGGGGSGGGGSGGGGSEVQLVESGGGLVQRGGSLRLSCAASGFTFSNYWMSWVRQAPGKCLEWVANIKEDGSEKYYVDSVKGRFTISRDNAKHSLYLQMNSLRAEDTAVYYCARERRTGYFDYWGQGTLVTVSSDKTHTCPPCPAPEFEGGPSVFLFPPKPKDTLMISRTPEVTCVVVDVSHEDPEVKFNWYVDGVEVHNAKTKPREEQYNSTYRVVSVLTVLHQDWLNGKEYKCKVSNKALPASIEKTISKAKGQPREPQVYTLPPCREEMTKNQVSLWCLVKGFYPSDIAVEWESNGQPENNYKTTPPVLDSDGSFFLYSKLTVDKSRWQQGNVFSCSVMHEALHNHYTQKSLSLSPGK
chain 2: EVQLVQSGAEVKKPGSSVKVSCKASGYTITDSNIHWVRQAPGQSLEWIGYIYPYNGGTDYNQKFKNRATLTVDNPTNTAYMELSSLRSEDTAFYYCVNGNPWLAYWGQGTLVTVSSASTKGPSVFPLAPSSKSTSGGTAALGCLVKDYFPEPVTVSWNSGALTSGVHTFPAVLQSSGLYSLSSVVTVPSSSLGTQTYICNVNHKPSNTKVDKRVEPKSCDKTHTCPPCPAPEFEGGPSVFLFPPKPKDTLMISRTPEVTCVVVDVSHEDPEVKFNWYVDGVEVHNAKTKPREEQYNSTYRVVSVLTVLHQDWLNGKEYKCKVSNKALPASIEKTISKAKGQPREPQVCTLPPSREEMTKNQVSLSCAVKGFYPSDIAVEWESNGQPENNYKTTPPVLDSDGSFFLVSKLTVDKSRWQQGNVFSCSVMHEALHNRFTQKSLSLSPGK
chain 3: DIQLTQSPSTLSASVGDRVTITCRASESLDNYGIRFLTWFQQKPGKAPKLLMYAASNQGSGVPSRFSGSGSGTEFTLTISSLQPDDFATYYCQQTKEVPWSFGQGTKVEVKRTVAAPSVFIFPPSDEQLKSGTASVVCLLNNFYPREAKVQWKVDNALQSGNSQESVTEQDSKDSTYSLSSTLTLSKADYEKHKVYACEVTHQGLSSPVTKSFNRGEC

- Kd (recombinant CD3 proteins [2]): 276 nM
- koff (recombinant CD3 proteins [2]): 0.0854 s⁻¹
- kon (recombinant CD3 proteins [2]): 309000 M⁻¹ s⁻¹
B2: CD3 × CD33-BspAb97 (bispecific antibody)
chain 1: SYELTQPPSVSVSPGQTARITCSGDALPKKYAYWYQQKSGQAPVLVIYEDSKRPSGIPERFSGSSSGTMATLTISGAQVEDEADYYCYSTDSSGNHWVFGCGTKLTVLGGGGSGGGGSGGGGSGGGGSEVQLVESGGGLVKPGGSLRLSCAASGFTFSNYYMNWVRQAPGKCLERVSSISSSSNYIYYADSVKGRFTISRDNAKNSLYLQMNSLRAEDTAVYYCARDRRELPLDYWGQGTVVTVSSDKTHTCPPCPAPEFEGGPSVFLFPPKPKDTLMISRTPEVTCVVVDVSHEDPEVKFNWYVDGVEVHNAKTKPREEQYNSTYRVVSVLTVLHQDWLNGKEYKCKVSNKALPASIEKTISKAKGQPREPQVYTLPPCREEMTKNQVSLWCLVKGFYPSDIAVEWESNGQPENNYKTTPPVLDSDGSFFLYSKLTVDKSRWQQGNVFSCSVMHEALHNHYTQKSLSLSPGK
chain 2: B1 chain 2
chain 3: B1 chain 3

- Kd (recombinant CD3 proteins [3]): 645 nM
- koff (recombinant CD3 proteins [3]): 0.0738 s⁻¹
- kon (recombinant CD3 proteins [3]): 115000 M⁻¹ s⁻¹
B3: CD3 × CD33-BspAb94 (bispecific antibody)
chain 1: NFMLTQPHSVSESPGKTVTISCTRSSGSIASNYVQWYQQRPGSSPTTVIYEDNQRPSGVPDRFSGSIDSSSNSASLTISGLKTEDEADYYCQSYDSSNRVFGCGTKLTVLGGGGSGGGGSGGGGSGGGGSEVQLVESGGGLVKPGGSLRLSCAASGFTFSSYTMNWVRQAPGKCLEWVSSITTSSSYIYYADSVKGRFTISRDNAKNSLYLQMNSLRAEDTAVYYCARVTFDAFDIWGQGTMVTVSSDKTHTCPPCPAPEFEGGPSVFLFPPKPKDTLMISRTPEVTCVVVDVSHEDPEVKFNWYVDGVEVHNAKTKPREEQYNSTYRVVSVLTVLHQDWLNGKEYKCKVSNKALPASIEKTISKAKGQPREPQVYTLPPCREEMTKNQVSLWCLVKGFYPSDIAVEWESNGQPENNYKTTPPVLDSDGSFFLYSKLTVDKSRWQQGNVFSCSVMHEALHNHYTQKSLSLSPGK
chain 2: B1 chain 2
chain 3: B1 chain 3

- Kd (recombinant CD3 proteins [4]): 573 nM
- koff (recombinant CD3 proteins [4]): 0.21 s⁻¹
- kon (recombinant CD3 proteins [4]): 366000 M⁻¹ s⁻¹
B4: CD3 × CD33-BspAb96 (bispecific antibody)
chain 1: SYELTQPPSVSVSPGQTARITCSGDALPKKYAYWYQQKSGQAPVLVIYEDSKRPSGIPERFSGSSSGTMATLTISGAQVEDEADYYCYSTDSSGNHSWVFGCGTKLTVLGGGGSGGGGSGGGGSGGGGSEVQLVESGGGLVKPGGSLRLSCAASGFTFSSYSMNWVRQAPGKCLEWVSSVNSRGSYIYYADSVKGRFTISRDNAKDSLYLQMNSLRADDTAVYYCARDRRELLLDYWGQGTLVTVSSDKTHTCPPCPAPEFEGGPSVFLFPPKPKDTLMISRTPEVTCVVVDVSHEDPEVKFNWYVDGVEVHNAKTKPREEQYNSTYRVVSVLTVLHQDWLNGKEYKCKVSNKALPASIEKTISKAKGQPREPQVYTLPPCREEMTKNQVSLWCLVKGFYPSDIAVEWESNGQPENNYKTTPPVLDSDGSFFLYSKLTVDKSRWQQGNVFSCSVMHEALHNHYTQKSLSLSPGK
chain 2: B1 chain 2
chain 3: B1 chain 3

- Kd (recombinant CD3 proteins [5]): 43.8 nM
- koff (recombinant CD3 proteins [5]): 0.00051 s⁻¹
- kon (recombinant CD3 proteins [5]): 11600 M⁻¹ s⁻¹
B5: CD3 × CD33-BspAb92 (bispecific antibody)
chain 1: not shown
chain 2: B1 chain 2
chain 3: B1 chain 3

- Kd (recombinant CD3 proteins [6]): 8.44 nM
- koff (recombinant CD3 proteins [6]): 0.00457 s⁻¹
- kon (recombinant CD3 proteins [6]): 542000 M⁻¹ s⁻¹
B6: CD3 × CD33-BspAb95 (bispecific antibody)
chain 1: NFMLTQPHSVSESPGKTVTISCTRSSGSIASNYVQWYQQRPGSSPTTVIYEDNQRSSGVPDRFSGSIDSSSNSASLTISGLKTEDEADYYCQSYDRSNRVFGCGTKLTVLGGGGSGGGGSGGGGSGGGGSEVQLVESGGGLVKPGGSLRLSCSASGFTFSTYTMNWVRQAPGKCLEWVSSISKSSSYIYYTDSVKGRFTISRDNAKNSLYLQMNSLRAEDTAVYYCARERRTLAFDIWGQGTMVTVSSDKTHTCPPCPAPEFEGGPSVFLFPPKPKDTLMISRTPEVTCVVVDVSHEDPEVKFNWYVDGVEVHNAKTKPREEQYNSTYRVVSVLTVLHQDWLNGKEYKCKVSNKALPASIEKTISKAKGQPREPQVYTLPPCREEMTKNQVSLWCLVKGFYPSDIAVEWESNGQPENNYKTTPPVLDSDGSFFLYSKLTVDKSRWQQGNVFSCSVMHEALHNHYTQKSLSLSPGK
chain 2: B1 chain 2
chain 3: B1 chain 3

- Kd (recombinant CD3 proteins [7]): 14.8 nM
- koff (recombinant CD3 proteins [7]): 0.00516 s⁻¹
- kon (recombinant CD3 proteins [7]): 349000 M⁻¹ s⁻¹
B7: CD3 × CD33-BspAb93 (bispecific antibody)
chain 1: NFMLTQPHSVSESPGKTVTISCTRSSGSIASKYVQWYQQRPGSSPTTVIYEDNQRPSGVPDRFSGSIDSSSNSASLTISGLKTEDEADYYCQSYYSNNRVFGCGTKLTVLGGGGSGGGGSGGGGSGGGGSEVQLVESGGGLVQPGGSLRLSCAASGFTFSRYSMNWVRQAPGKCLEWVSYISRSSTTIYYADSVKGRFTISRDNAKNSLYLQMNSLRDEDAAVYYCARERWELLYFDYWGQGTLVTVSSDKTHTCPPCPAPEFEGGPSVFLFPPKPKDTLMISRTPEVTCVVVDVSHEDPEVKFNWYVDGVEVHNAKTKPREEQYNSTYRVVSVLTVLHQDWLNGKEYKCKVSNKALPASIEKTISKAKGQPREPQVYTLPPCREEMTKNQVSLWCLVKGFYPSDIAVEWESNGQPENNYKTTPPVLDSDGSFFLYSKLTVDKSRWQQGNVFSCSVMHEALHNHYTQKSLSLSPGK
chain 2: B1 chain 2
chain 3: B1 chain 3
